Measured values reported in article PMC6487837.

assay: confocal microscopy, plasma membrane localisation, HT1080 and HL-1 cells; conditions: glycan lost; control: wild-type DSC2-eYFP

localisation_or_trafficking, no change:
Desmocollin-2 (DSC2): p.N546Q, Desmocollin-2 (DSC2): p.N392Q, Desmocollin-2 (DSC2): p.N166Q, Desmocollin-2 (DSC2): p.N629Q
